Data taken from patent US20240352438A1, “MEANS AND METHODS FOR DETOXIFYING OCHRATOXIN A” (DSM Austria GmbH, priority 2021, published 2024).

B1: 28 (protein)
chain: MDISIKGGELFTGKELLGKFNIYIKDKKIVEISKEDKQAEVEVNAKDMFVMPGLIDAHIHLSGVKGGSLLKTMFEKPEYRVLRASKWLERLLLAGFTTVRDCGESISIALKRAVNEKIIKGPKIIAAGRPISQTFGHGELSHDLPLEFSKALSFSEFCDGVESCIHASRKVLREGADFIKIFATGGVLSQRDKPENPQLSYEEIKAIVNEAEKVNTYVAAHAHGDKGARIAIEAGVKTLEHGTLLRDDTLKLMVEKRVSLTPTLTIQELIYKYGKQIGVDEWGLEKINSVRESVAEVVRKAKEYGVLIINGTDLGFETGLDEIDMGKNWMETVLLVERGNLSNVEALRASTYNSAIAIGNDAGIIDIGRPADIIVINGNPSENIRDISKVVHVIKDGSLVVENKRLTDSL
modifications: exemplary polypeptide
B2: 24 (protein)
chain: MELAIRNGIVFNGKEIIGKTNIYVREGKIVEVSREDHSAKMEIDAKDMFVMPGLIDAHIHLSGIKGGSLLKIMFEKPEYRVLRAAKWLEKLLLAGFTTVRDCGETVSLALKRALNDGIIGGPKVIAAGKPITQTFGHGELSHDVPLEFSKTMSFSEFCDGMESCIHAARKVLRDGADFIKIFATGGVLSQRDRPEHPQLSYEEIRAIVNEAEKVNTYVAAHAHGDRGARIAIEAGVKTLEHGTLLKDETLKLMKEKNVTLTPTLTIQELIFKYGKQIGVDEWGLQKITSVRENIANVVRKAKEYGVTIISGTDLGFETGLEEIDMGKNWMETVLLVERGGLSPIEALRASTYNAAMAIGINAGVIEIGKDADIIIINGDPTLNVREISKITHVVKNGKLTVENKSIKG
modifications: exemplary polypeptide
B3: 30 (protein)
chain: MELAIRNGIVFNGKEVIGKTNIYVREGKIVEVSREDHSAKMEIDAKDMFVMPGLIDAHIHLSGIKGGSLLKIMFEKPEYRVLRAAKWLEKLLLAGFTTVRDCGETVSLALKRAVNDGIIDGPKVIAAGKPITQTFGHGELSHDVPLEFSKTMSFSEFCDGMESCIHAARKVLRDGADFIKIFATGGVLSQRDTPEHPQLSYEEIRAIVNEAEKVNSYVAAHAHGDRGARIAIEAGVKTLEHGTLLKDETLKLMKEKNVTLTPTLTIQELIFKYGKQIGVDEWGLQKITSVRESIANVVRKAKEYGVTIISGTDLGFETGLEEIEMGKNWMETVLLVERGGLSPIEALRASTYNAAMAIGINAGVIEIGKDADIIIINGDPTQNVREISKITHVIKNGKLTVENKSIKG
modifications: exemplary polypeptide
B4: 32 (protein)
chain: MELAIRNGIVFNGKEVIGKTNIYVREEKIVEISREDHSAKMEIDAKDMFVMPGLIDAHIHLSGIKGGSLLKIMFEKPEYRVLRAAKWLEKLLLAGFTTVRDCGETVSLALKRALNDGIIDGPKVIAAGKPITQTFGHGELSHDVPLEFSKTMSFSEFCDGMESCIHAARKVLRDGADFIKIFATGGVLSQRDRPEHPQLSYEEIRAIVNEAEKVNTYVAAHAHGDRGARIAIEAGVKTLEHGTLLKDETLKLMKEKNVTLTPTLTIQELIFKYGKQIGVDEWGLQKITSVRENIANVVRKAKEYGVTIISGTDLGFETGLEEIDMGKNWMETVLLVERGGLSPIEALRASTYNAAMAIGINAGVIEIGKDADIIIINGDPTLNVREISKITHVIKNGKLTVENKSIKG
modifications: exemplary polypeptide
B5: 31 (protein)
chain: MELAIRNGIVFNGKEVIGKTNIYVREGKIVEVSREDHSAKMEIDAKDMFVMPGLIDAHIHLSGIKGGSLLKIMFEKPEYRVLRAAKWLEKLLLAGFTTVRDCGETVSLALKRAVNDGIVDGPKVIAAGKPITQTFGHGELSHDVPLEFSKTMSFSEFCDGMESCIHAARKVLRDGADFIKIFATGGVLSQRDTPEHPQLSYEEIRAIVNEAEKVNSYVAAHAHGDRGARIAIEAGVKTLEHGTLLKDETLKLMKEKNVTLTPTLTIQELIFKYGKQIGVDEWGLQKITSVRESIANVVRKAKEYGVTIISGTDLGFETGLEEIEMGKNWMETVLLVERGGLSPIEALRASTYNAAMAIGINAGVIEIGKDADIIIINGDPTQNVREISKITHVIKNGKLTVENKSIKG
modifications: exemplary polypeptide
B6: 33 (protein)
chain: MELAIRNGIVFNGKEIIGKTNIYVREGKIVEVSREDHSAKMEIDAKDMFVMPGLIDAHIHLSGIKGGSLLKIMFEKPEYRVLSAAKWLEKLLLAGFTTVRDCGETVSLALKRALNDGIIGGPKVIAAGKPITQTFGHGELSHDVPLEFSKTMSFSEFCDGMESCIHAARKVLRDGADFIKIFATGGVLSQRDRPEHPQLSYEEIRAIVNEAEKVNTYVAAHAHGDRGARIAIEAGVKTLEHGTLLKDETLKLMKEKNVTLTPTLTIQELIFKYGKQIGVDEWGLQKITSVRENIANVVRKAKEYGVTIISGTDLGFETGLEEIDMGKNWMETVLLVERGGLSPIEALRASTYNAAMAIGINAGVIEIGKDADIIIINGDPTLNVREISKITHVVKNGKLTVENKSIKG
modifications: exemplary polypeptide
B7: 25 (protein)
chain: MFDLGIKNGNVFSGKDNLGKTNIYVNNGKIVKISKENLEVRQEIDAKDMFVMPGLIDSHIHLSGIKGGSLLKIMFEKPEYRILRASKWLEKLLLAGFTTVRDCGDPISISLAKGVKDGIIIGPNIIAAGRPITQTFGHGEISHDIPLEFSEVLGFSEICDGVESCIHSARKVLREGSDFIKIFATGGVLSQRDRPENPQLTYEEIKSIVNEAEKIGTYVAAHAHGDKGARIAIEAGIKTLEHGTMLKDDTMKLMIEKDVSLTPTLTIQEVIYKYGKQIGVDEWGLEKITEVRNSISSVVKKAKEYGIRIITGTDLGFETGLSDIDIGKNWVELTLLVERGGLTPKEALQAATYNSALSLRINSGLIDTDRNADIIIIDGDPEENISDIAKIDHVIKNGNIIVEKGKIINYS
modifications: exemplary polypeptide
B8: 23 (protein)
chain: MQYDVAIKNGNVFTGTEFIGKMNIYISNGKISKVSKEDLNAKQEIDAKDMLVMPGLIDAHMHISGLKGGSLLKIMFEKPEYRALRATKWLEKLLLAGFTTVRDCGEPISISLKRAVNEGYIKGPKIIAAGKPITQTFGHGEFSHDIPLEFSISLGFSEICDGTESCIHAARKVLRDGSDFIKIFATGGVLSQRDRPDMPQLSFDEIRAIVNEAEKAGTYVAAHAHGDKGARIAIEAGIKTLEHGSLLKEDTLKLMLEKNISLTPTLTITEIIYKYGKTIGVDEWGLEKIVEVRENLHKVLRKAKELGITIITGTHMGFETGLEDYDIGKNWTEILLLTEVGGLSNEEALRAATYNSAKALGLNSGLIDEGKDADIIVIDGNPLENIKDVSKVVHVIKQGKLEVLDSKIINNY
modifications: exemplary polypeptide
B9: 27 (protein)
chain: MDILIKGGQVFNGKDFIGKANVYIKYGKIVEVSKEVKEAKEEIDARDMFVMPGLIDAHIHLSGIKGGSLMKTMFERPEYRVLRASKWLEKLLLAGFTTVRDCGEYVSLALKRAVQEGTIKGSNIIAAGRPVTQTFGHGEISHDIPLEFSHKVGFSEFCDGTESCIHAARKILRDGSDFIKVFATGGVLSQRDKPENPQLSYDEIKAIVNEAHKVGTYVAAHAHGDAGAKIAVEAGVKTIEHGTLLKDDTLKLMVNKGVSLTPTLTIQEVIYRYGKQIGVDEWGLQKIFEVRERVADVVKKAKDYGVLMISGTDLGFETGLWDIDMGKNWYELVLLVERGGLTPKEALTTATYNSSIALGINSGFIDIGKEGDLVVIDGNPLENIYDIAKVTHVLKAGRVEVRNGKLESK
modifications: exemplary polypeptide
B10: 29 (protein)
chain: MDLGIKNGNVFNGKGVVGKVNIYVKDGKIVEISKENKQAKIEIDAKDMFVMPGLIDAHIHLTGIKGGSLLKTMFEKPEYRVLRASKWLEKLLLAGFTTVRDCGETISLALKRGVSEGIINGPRIIAAGKPISQTFGHGELSHDVPLEFSMALSFSEFCDGVESCIRASRKVLRDGADFIKIFATGGVLSQRDRPEHPQLSYEEISAIVNEAEKINTYVAAHAHGDKGARIAVEAGIKTLEHGTLLRDETLKLMRERNVTLTPTLTIQELIYKYGKQIGVDEWGLQKINEVRESVVNVVKKAEEYGVMIITGTDLGFETGLEEIDIGKNWMESVLLVERGGLSTISSLRASTYNSAFAIGINAGAIEVGKDADIIVIDGDPTENIRDLSKVRRVVKNGKLTVEDGKFL
modifications: exemplary polypeptide
B11: 26 (protein)
chain: MAFDIALKNGNIFNGKEFIGKSNIYINNGKIVKVSKEELDAKQEIDAMDMFVMPGLIDAHMHISGIKGGSLLKLMFERPEYRTIRATKWLEKLLLAGFTTVRDCGDPISISLAKAVKEGIIKGPNVIAAGRPITQTFGHGELSHDIPLEVSETTGFSEICDGTESCIHAARKVLREGSDFIKIFATGGVLSQRDKPENPQLTYDEIKVIVNEAEKVGTYVAAHAHGDKGARIAIEAGIKTLEHGTLLQDETLKLMIEKKVTLTPTLSIQEVIYRHGKEIGVDEWGLEKIAMVRDSISSVVKKAKDYGITIITGTDLGFETGLEDIDIGKNWMEIVLLIEIGGLTPVEALRAATYNSSIAININSGLIDSGKEADLIIINGNPLEDIKDISKVSYVIKDGKIEVEERKIKN
modifications: exemplary polypeptide

experiment: Thermostability assay: residual OTA detoxification activity after 10 min incubation at 45-99° C. (T50); format: physicochemical; conditions: 0.1 mg/mL protein in 20 mM Tris-HCl pH 7.5, residual OTA detoxification activity relative to 4° C. reference aliquot
Description: Stability was determined in terms of thermostability. Notwithstanding, a person having skill in the art is aware that stability towards high temperature (e.g. more than 30° C.) often correlates with stability towards other non-standard conditions such as stability towards acidic or basic pH (e.g. below pH 6.5 or above pH 7.5, respectively), towards elevated salt concentrations, organic solvents or drying.
To determine the kinetic stability of the produced enzymes, thermostability assays were performed. To this end, purified protein samples were diluted to a protein concentration of 0.1 mg/mL in 20 mM Tris-HCl buffer pH 7.5 and aliquots were incubated in a thermocycler for 10 min at either 45, 55, 65, 75, 80, 85, 90, 95 or 99° C. After this incubation, the aliquots were stored at 4° C. until further analysis. A reference aliquot was stored at 4° C. throughout the incubation. Subsequently, all aliquots were assayed for residual OTA detoxification activity using the assay described in Example 3. Residual enzyme activities were calculated relative to the reference aliquot. The temperature range in which 50% of the initial activity was lost after the incubation (T50), in relation to the reference aliquot was determined.

Question: With B1 as the molecule, how does the “T50 (temperature at which 50% of the initial activity was maintained)” value read?
Answer: >95 °C

Question: Which “T50 (temperature at which 50% of the initial activity was maintained)” value does the source give for B2 here?
Answer: >95 °C

Question: With B3 as the molecule, how does the “T50 (temperature at which 50% of the initial activity was maintained)” value read?
Answer: >95 °C

Question: With B4 as the molecule, how does the “T50 (temperature at which 50% of the initial activity was maintained)” value read?
Answer: >95 °C

Question: With B5 as the molecule, how does the “T50 (temperature at which 50% of the initial activity was maintained)” value read?
Answer: >95 °C

Question: Which “T50 (temperature at which 50% of the initial activity was maintained)” value does the source give for B6 here?
Answer: >95 °C

Question: Which “T50 (temperature at which 50% of the initial activity was maintained)” value does the source give for B7 here?
Answer: >95 °C

Question: With B8 as the molecule, how does the “T50 (temperature at which 50% of the initial activity was maintained)” value read?
Answer: >95 °C

Question: With B9 as the molecule, how does the “T50 (temperature at which 50% of the initial activity was maintained)” value read?
Answer: >95 °C

Question: With B10 as the molecule, how does the “T50 (temperature at which 50% of the initial activity was maintained)” value read?
Answer: >95 °C

Question: For B11, which “T50 (temperature at which 50% of the initial activity was maintained)” value is on record?
Answer: >95 °C
